In patent publication US20200283741:

T1: HbS1c-type αF8P
T1 chain: VHLTPVEK

T2: HbC1c-type αF8P
T2 chain: VHLTPKEK

T3: HbA1c-type αF8P (α-fructosyl-valyl-histidyl-leucyl-threonyl-prolyl-glutamyl-glutamyl-lysine)
T3 chain: VHLTPEEK


How the values were obtained:
[1] = biological target: T1, HbS1c-type αF8P
[2] = biological target: T2, HbC1c-type αF8P
[3] = biological target: T3, HbA1c-type αF8P …

Protein	relative activity on substrate (activity on HbA1c-type αF8P = 100%) [1] [%]	relative activity on substrate (activity on HbA1c-type αF8P = 100%) [2] [%]	relative activity on substrate (reference, designated as 100%) [3] [%]	relative activity (HbS1c/HbA1c), fold over En42FX before modification [1]	relative activity (HbC1c/HbA1c), fold over En42FX before modification [2]
En42FX S112E (protein) MAPRANTKIIVVGGGGTMGSSTALHLLRAGYTPSNITVLDTYPIPSAQSAGYDLNKIFGISGANKHDLQLSLEAFDMWKNDPLFKPFFHNVGQMDVSSTEEGIKRLRRRYQELLRAGIGLEKTNFLLESEDEILAKAPHFTREQIKGWKGLFCGDGGWLAAAKAINAIGQFLKEQGVKFGFGEAGTFKKPLFADADEKTCIGVETVDGTKYYADKVVLAAGAWSSTLVDLEEQCVSKAWVFAHIQLTPAEAAAYKNTPVIYDGDYGFFIEPDENGIIKVCDEFPGFTHFKMHQPYGSPVPKLISVPRSHAKHPTDTYPHASEVTIKKAINRFLPRFNDKELFNRAMCWCTDTADSNLLVCEHPRWKGFYLATGDSGHSFKLLPNIGKHVVELLEGRLESVFKDAWRWRPGSGDALKSRRAAPAKDLADMPGWRNEAKM	82	41	100	–	–
En42FX R105S (protein) MAPRANTKIIVVGGGGTMGSSTALHLLRAGYTPSNITVLDTYPIPSAQSAGYDLNKIFGISGANKHDLQLSLEAFDMWKNDPLFKPFFHNVGQMDVSSTEEGIKSLRRRYQSLLRAGIGLEKTNFLLESEDEILAKAPHFTREQIKGWKGLFCGDGGWLAAAKAINAIGQFLKEQGVKFGFGEAGTFKKPLFADADEKTCIGVETVDGTKYYADKVVLAAGAWSSTLVDLEEQCVSKAWVFAHIQLTPAEAAAYKNTPVIYDGDYGFFIEPDENGIIKVCDEFPGFTHFKMHQPYGSPVPKLISVPRSHAKHPTDTYPHASEVTIKKAINRFLPRFNDKELFNRAMCWCTDTADSNLLVCEHPRWKGFYLATGDSGHSFKLLPNIGKHVVELLEGRLESVFKDAWRWRPGSGDALKSRRAAPAKDLADMPGWRNEAKM	56	13	100	improved by about 1.4 to 3.7 times	–
En42FX R105L (protein) MAPRANTKIIVVGGGGTMGSSTALHLLRAGYTPSNITVLDTYPIPSAQSAGYDLNKIFGISGANKHDLQLSLEAFDMWKNDPLFKPFFHNVGQMDVSSTEEGIKLLRRRYQSLLRAGIGLEKTNFLLESEDEILAKAPHFTREQIKGWKGLFCGDGGWLAAAKAINAIGQFLKEQGVKFGFGEAGTFKKPLFADADEKTCIGVETVDGTKYYADKVVLAAGAWSSTLVDLEEQCVSKAWVFAHIQLTPAEAAAYKNTPVIYDGDYGFFIEPDENGIIKVCDEFPGFTHFKMHQPYGSPVPKLISVPRSHAKHPTDTYPHASEVTIKKAINRFLPRFNDKELFNRAMCWCTDTADSNLLVCEHPRWKGFYLATGDSGHSFKLLPNIGKHVVELLEGRLESVFKDAWRWRPGSGDALKSRRAAPAKDLADMPGWRNEAKM	64	9	100	–	improved by about 1.1 to 10.8 times
En42FX R105D (protein) MAPRANTKIIVVGGGGTMGSSTALHLLRAGYTPSNITVLDTYPIPSAQSAGYDLNKIFGISGANKHDLQLSLEAFDMWKNDPLFKPFFHNVGQMDVSSTEEGIKDLRRRYQSLLRAGIGLEKTNFLLESEDEILAKAPHFTREQIKGWKGLFCGDGGWLAAAKAINAIGQFLKEQGVKFGFGEAGTFKKPLFADADEKTCIGVETVDGTKYYADKVVLAAGAWSSTLVDLEEQCVSKAWVFAHIQLTPAEAAAYKNTPVIYDGDYGFFIEPDENGIIKVCDEFPGFTHFKMHQPYGSPVPKLISVPRSHAKHPTDTYPHASEVTIKKAINRFLPRFNDKELFNRAMCWCTDTADSNLLVCEHPRWKGFYLATGDSGHSFKLLPNIGKHVVELLEGRLESVFKDAWRWRPGSGDALKSRRAAPAKDLADMPGWRNEAKM	114	86	100	–	improved by about 1.1 to 10.8 times
